Results: the supplement of paper PMC9116672
± gives the standard deviation of the averaged measurements or the uncertainty stated by the source.

How the values were obtained:
[1] = duplex melting temperature (HRM, EvaGreen); higher = more stable duplex
Description: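 Listed DNA strand annealed 1:1 with its complementary strand (95 °C 5 min, 0.1 °C/s to 20 °C). Melted in 1x NNE buffer (500 mM NaCl, 10 mM Na2HPO4, 1 mM EDTA, pH 7.0) with 1x EvaGreen on a LightCycler96 (37 to 97 °C, 0.1 °C/s). Tm is the peak of -dF/dT at the stated total duplex concentration; 4 replicates are averaged. PS oligos are non-stereospecific (Rp/Sp mixtures).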

[2] = duplex formation free energy ΔG50 (Van't Hoff fit of HRM Tm); higher = less stable duplex; details: temperature for dG: 50 °C, NaCl: 500 mM (unadjusted)
Description: (§1)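 Duplex of the listed DNA strand with its complement, in 1x NNE buffer (500 mM NaCl, pH 7.0) with 1x EvaGreen. ΔH and ΔS come from a Van't Hoff linear fit of 1/Tm against ln(CT/4) over 1-20 uM, using HRM Tm values.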

[3] = duplex formation enthalpy ΔH (Van't Hoff fit of HRM Tm); higher = less exothermic duplex formation; details: temperature for dG: 50 °C, NaCl: 500 mM (unadjusted)
Description: as §1

[4] = duplex formation entropy ΔS (Van't Hoff fit of HRM Tm); higher = smaller entropy loss on duplex formation; details: temperature for dG: 50 °C, NaCl: 500 mM (unadjusted)
Description: as §1

[5] = duplex concentration 1 µM, backbone: PO-PO (both strands phosphodiester DNA)
[6] = duplex concentration 1 µM, backbone: PS-PO (listed strand fully phosphorothioate, complement phosphodiester)
[7] = duplex concentration 1 µM, backbone: PS-PS (both strands fully phosphorothioate)
[8] = duplex concentration 2.5 µM, backbone: PO-PO (both strands phosphodiester DNA)
[9] = duplex concentration 2.5 µM, backbone: PS-PO (listed strand fully phosphorothioate, complement phosphodiester)
[10] = duplex concentration 2.5 µM, backbone: PS-PS (both strands fully phosphorothioate)
[11] = duplex concentration 5 µM, backbone: PO-PO (both strands phosphodiester DNA)
[12] = duplex concentration 5 µM, backbone: PS-PO (listed strand fully phosphorothioate, complement phosphodiester)
[13] = duplex concentration 5 µM, backbone: PS-PS (both strands fully phosphorothioate)
[14] = duplex concentration 7.5 µM, backbone: PO-PO (both strands phosphodiester DNA)
[15] = duplex concentration 7.5 µM, backbone: PS-PO (listed strand fully phosphorothioate, complement phosphodiester)
[16] = duplex concentration 7.5 µM, backbone: PS-PS (both strands fully phosphorothioate)
[17] = duplex concentration 10 µM, backbone: PO-PO (both strands phosphodiester DNA)
[18] = duplex concentration 10 µM, backbone: PS-PO (listed strand fully phosphorothioate, complement phosphodiester)
[19] = duplex concentration 10 µM, backbone: PS-PS (both strands fully phosphorothioate)
[20] = duplex concentration 15 µM, backbone: PO-PO (both strands phosphodiester DNA)
[21] = duplex concentration 15 µM, backbone: PS-PO (listed strand fully phosphorothioate, complement phosphodiester)
[22] = duplex concentration 15 µM, backbone: PS-PS (both strands fully phosphorothioate)
[23] = duplex concentration 20 µM, backbone: PO-PO (both strands phosphodiester DNA)
[24] = duplex concentration 20 µM, backbone: PS-PO (listed strand fully phosphorothioate, complement phosphodiester)
[25] = duplex concentration 20 µM, backbone: PS-PS (both strands fully phosphorothioate)
[26] = backbone: PO-PO (both strands phosphodiester DNA)
[27] = backbone: PS-PO (listed strand fully phosphorothioate, complement phosphodiester)
[28] = backbone: PS-PS (both strands fully phosphorothioate)

| Sequence | duplex melting temperature [1, 5] [°C] | duplex melting temperature [1, 6] [°C] | duplex melting temperature [1, 7] [°C] | duplex melting temperature [1, 8] [°C] | duplex melting temperature [1, 9] [°C] | duplex melting temperature [1, 10] [°C] | duplex melting temperature [1, 11] [°C] | duplex melting temperature [1, 12] [°C] | duplex melting temperature [1, 13] [°C] | duplex melting temperature [1, 14] [°C] | duplex melting temperature [1, 15] [°C] | duplex melting temperature [1, 16] [°C] | duplex melting temperature [1, 17] [°C] | duplex melting temperature [1, 18] [°C] | duplex melting temperature [1, 19] [°C] | duplex melting temperature [1, 20] [°C] | duplex melting temperature [1, 21] [°C] | duplex melting temperature [1, 22] [°C] | duplex melting temperature [1, 23] [°C] | duplex melting temperature [1, 24] [°C] | duplex melting temperature [1, 25] [°C] | duplex formation free energy ΔG50 [2, 26] [kcal/mol] | duplex formation free energy ΔG50 [2, 27] [kcal/mol] | duplex formation free energy ΔG50 [2, 28] [kcal/mol] | duplex formation enthalpy ΔH [3, 26] [kcal/mol] | duplex formation enthalpy ΔH [3, 27] [kcal/mol] | duplex formation enthalpy ΔH [3, 28] [kcal/mol] | duplex formation entropy ΔS [4, 26] [cal/mol/K] | duplex formation entropy ΔS [4, 27] [cal/mol/K] | duplex formation entropy ΔS [4, 28] [cal/mol/K] |
| --- | --- | --- | --- | --- | --- | --- | --- | --- | --- | --- | --- | --- | --- | --- | --- | --- | --- | --- | --- | --- | --- | --- | --- | --- | --- | --- | --- | --- | --- | --- |
| TCTCGCGGTTCCATTA | 62.7 ± 1.2 | 56.3 | 50.4 ± 1.6 | 67.08 ± 0.63 | 59.34 ± 0.38 | 54.64 ± 0.23 | 68.7 ± 0.86 | 61.95 ± 0.17 | 57.28 ± 0.084 | 70.24 ± 0.58 | 63.21 ± 0.18 | 58.48 ± 0.13 | 71.59 ± 0.45 | 64.2 ± 0.12 | 59.42 ± 0.15 | 73.26 ± 0.38 | 65.517 ± 0.063 | 60.81 ± 0.1 | 74.35 ± 0.18 | 66.61 ± 0.15 | 61.53 ± 0.15 | -12.1 ± 0.14 | -10.99 ± 0.07 | -9.954 ± 0.074 | -61.4 ± 2.4 | -64.3 ± 1.7 | -59.3 ± 2.9 | -152 ± 7 | -165 ± 5.2 | -153 ± 8.8 |
| GAGCAGAAGGGGTTGT | 63.5 ± 1.7 | 58.19 ± 0.23 | 49.7 ± 0.9 | 66.19 ± 0.54 | 60.88 ± 0.2 | 53.7 ± 0.54 | 68.16 ± 0.65 | 63.08 ± 0.15 | 55.97 ± 0.26 | 69.5 ± 0.73 | 64.37 ± 0.09 | 57.22 ± 0.19 | 70.88 ± 0.2 | 65.29 ± 0.073 | 57.97 ± 0.097 | 72.362 ± 0.008 | 66.57 ± 0.019 | 59.215 ± 0.054 | 73.62 ± 0.15 | 67.52 ± 0.11 | 60.08 ± 0.23 | -12.4 ± 0.17 | -11.48 ± 0.05 | -9.823 ± 0.063 | -68.3 ± 2.9 | -70.9 ± 1.2 | -63.9 ± 2.9 | -173 ± 8.6 | -184 ± 3.5 | -167 ± 8.8 |
| ACTGTATCGCCCTA | – | – | 43.6 ± 0.65 | 64.04 ± 0.18 | – | 47.26 ± 0.29 | 65.3 ± 0.12 | 57.4 ± 0.95 | 50.2 ± 0.33 | 66.7 ± 0.24 | 60.1 ± 0.84 | 51.8 ± 0.45 | 68.35 ± 0.2 | 61.56 ± 0.48 | 54.55 ± 0.45 | 69.55 ± 0.22 | 62.93 ± 0.27 | 57.15 ± 0.42 | 70.51 ± 0.2 | 63.73 ± 0.26 | 59.2 ± 0.59 | -12 ± 0.31 | -10.2 ± 0.24 | -8.829 ± 0.042 | -70.4 ± 6 | -56.7 ± 6.8 | -40.3 ± 2.8 | -181 ± 18 | -144 ± 20 | -97.5 ± 8.7 |
| GATGCCGCAGCGACCTG | – | 67.1 | 61.35 ± 0.33 | 76.6 ± 1.4 | 69.756 ± 0.045 | 64.23 ± 0.086 | 78.68 ± 0.64 | 72.16 ± 0.23 | 66.19 ± 0.1 | 80.46 ± 0.37 | 73.33 ± 0.28 | 67.4 ± 0.078 | 81.03 ± 0.31 | 74.43 ± 0.15 | 68.25 ± 0.097 | 82.09 ± 0.41 | 75.63 ± 0.13 | 69.34 ± 0.12 | 82.88 ± 0.26 | 76.48 ± 0.17 | 70.24 ± 0.13 | – | -13.6 ± 0.14 | -12.42 ± 0.065 | – | -75.7 ± 2.1 | -77.6 ± 1.3 | – | -192 ± 5.9 | -202 ± 3.8 |
| TGCCATGTTGAAAACC | 61.32 ± 0.21 | – | 44.3 ± 0.54 | 63.56 ± 0.48 | 56.23 ± 0.2 | 46.98 ± 0.17 | 65.51 ± 0.22 | 58.37 ± 0.066 | 48.71 ± 0.25 | 66.6 ± 0.21 | 59.53 ± 0.1 | 49.82 ± 0.18 | 67.59 ± 0.15 | 60.34 ± 0.13 | 50.73 ± 0.22 | 68.82 ± 0.18 | 61.44 ± 0.11 | 51.73 ± 0.34 | 69.71 ± 0.33 | 62.27 ± 0.073 | 52.86 ± 0.13 | -12.4 ± 0.13 | -10.63 ± 0.058 | -8.447 ± 0.02 | -79.2 ± 2.6 | -76.1 ± 1.9 | -74 ± 2.4 | -207 ± 7.6 | -203 ± 5.8 | -203 ± 7.4 |
| CAAGCCTCGATTTTGT | – | – | 46.56 ± 0.31 | 64.39 ± 0.47 | 56.69 ± 0.17 | 50.11 ± 0.18 | 66.83 ± 0.17 | 58.85 ± 0.28 | 52.41 ± 0.077 | 68.04 ± 0.08 | 60.19 ± 0.34 | 53.632 ± 0.045 | 68.83 ± 0.17 | 60.95 ± 0.27 | 54.55 ± 0.083 | 70.12 ± 0.2 | 62.25 ± 0.24 | 55.802 ± 0.033 | 71.17 ± 0.15 | 63.14 ± 0.43 | 56.6 ± 0.35 | -12.29 ± 0.11 | -10.63 ± 0.052 | -9.148 ± 0.028 | -72.5 ± 2.1 | -71.3 ± 1.6 | -63.1 ± 2.1 | -186 ± 6 | -188 ± 4.9 | -167 ± 6.5 |
| CGTGTGGATAATTAGCT | 61.98 ± 0.083 | – | 45.73 ± 0.44 | 64.1 ± 0.3 | 56.74 ± 0.17 | 48.55 ± 0.15 | 65.87 ± 0.1 | 58.92 ± 0.14 | 50.38 ± 0.16 | 66.87 ± 0.1 | 59.81 ± 0.096 | 51.21 ± 0.21 | 67.8 ± 0.11 | 60.627 ± 0.006 | 51.88 ± 0.24 | 68.959 ± 0.05 | 61.686 ± 0.014 | 52.84 ± 0.21 | 69.9 ± 0.083 | 62.48 ± 0.14 | 53.67 ± 0.26 | -12.67 ± 0.099 | -10.86 ± 0.074 | -8.757 ± 0.024 | -83.9 ± 2 | -81 ± 2.4 | -80.3 ± 3 | -220 ± 5.9 | -217 ± 7.2 | -221 ± 9.2 |
| CCACTAGCGGCGCCGTT | – | 67.57 ± 0.56 | 62.65 ± 0.14 | 78.31 ± 0.24 | 70.82 ± 0.38 | 65.52 ± 0.13 | 80.05 ± 0.14 | 73 ± 0.26 | 67.54 ± 0.18 | 81.18 ± 0.29 | 74.33 ± 0.2 | 68.59 ± 0.13 | 81.87 ± 0.19 | 75.285 ± 0.053 | 69.501 ± 0.06 | 83.03 ± 0.12 | 76.37 ± 0.18 | 70.49 ± 0.094 | 83.58 ± 0.28 | 77.3 ± 0.13 | 71.36 ± 0.16 | -17 ± 0.36 | -13.7 ± 0.17 | -12.8 ± 0.097 | -97 ± 4 | -75.1 ± 2.5 | -79.8 ± 1.8 | -247 ± 11 | -190 ± 7.2 | -207 ± 5.3 |
| CTGTAAGGCGATATGTT | 62.12 ± 0.3 | 54.19 ± 0.32 | 46.56 ± 0.46 | 64 ± 0.26 | 57.45 ± 0.17 | 49.35 ± 0.22 | 66.38 ± 0.2 | 59.646 ± 0.025 | 51.33 ± 0.25 | 67.39 ± 0.14 | 60.55 ± 0.14 | 52.31 ± 0.059 | 68.42 ± 0.14 | 61.364 ± 0.05 | 53.15 ± 0.1 | 69.61 ± 0.1 | 62.62 ± 0.11 | 54.29 ± 0.068 | 70.55 ± 0.11 | 63.366 ± 0.049 | 55.12 ± 0.067 | -12.5 ± 0.13 | -10.76 ± 0.077 | -8.999 ± 0.015 | -77.7 ± 2.5 | -72.7 ± 2.5 | -73.8 ± 1.5 | -202 ± 7.4 | -192 ± 7.4 | -201 ± 4.6 |
